A protein production outcome set (Wang et al. 2014)

Assay: label from the status in PepcDB records

METKTVAITMGDPAGIGPEIIVKALSEDGLNGAPLVVIGCLATLKRLQAKGITPNVELRAIERVAEARFAPGIIHVIDEPLAQPEALEAGKVQAQAGDLAYRCVKRATELALRGDVQAIATAPLNKEALHLAGHNYPGHTELLATLTHSRDYAMVLYTDKLKVIHVSTHIALRKFLDTLSTARVETVIGIADTFLKRVGYVKPRIAVAGVNPHAGENGLFGDEETRILTPAITDARAKGMDVYGPCPPDTVFLQAYEGQYDMVVAMYHDQGHIPLKLLGFYDGVNITAGLPFIRTSADHGTAFDIAWTGKAKSESMAVSIKLAMQLA
protein production: not failed

METLNDIKKILINVGLYQGFDLTDPKVSEEVNHETANMKWIKDYTSDGNWDNEFKEDLKNFLDYMEVCQLALNDKNFKIASNSLFMAMIYAGNLSLIFDSIKTDISTLLSAEYKKNSFSWPSLDE
protein production: not failed

METLRVSSKSRPNSVAGAIAALLRTKGEVEVQAIGPQAVNQAVKAIAIARGYIAPDNLDLVVKPAFVKLELENEERTALKFSIKAHPLET
protein production: not failed

METQKTQAENPPKPATSSCRKKTKDDANFLEDVKDHIDDFINASMDDHKNCFNKTIKKMFGLSKAVADKQQSEAKGGVESYLPLQTTVSD
protein production: failed

METSMRYTSNSKSMKIHAKEKVPVNSKTHLQLHGELDTGTGAPSYFCAMIRHFFPEASTGLGVGLHYDKRQKLRCLVRGKKEFPVRADKRVTFNIKGRCDIDQDLNQKNPKGAAEFAWNIMDFKEDQDVRIKVGYEMFDKVPYMQIRENNWTLNANMKGKWNLRYDL
protein production: failed

MEVFLMIRRKKTTIFAEAQESSTVLELKRIVQGILKRPPEEQLLFKDDQLLDESKTLRDCGFTSQIAKAQDPATVALVFREDASEGVQIHPYSTPLLPSVMKTGTDSLSDEIKSGLDSLSDEIKSGLDSVWCIKPEAAAGMEVFLMIRRKKTTIFAEAQESSTVLELKRIVQGFLKKPPKDQLLFKDNQLLEERKTLRDCGITGRIAKPEDPAILTLEFREDAFQLLHASPFSCPLIGGVLKNGLDFKRD
protein production: failed

MEVGMIPRVYLGHEWFGAERILSEYQVPEDCGAQVLFLGIPRNAPEDGGNIEALEYEAYPEMAIKEMEKIRQETIEKFGVKEVFIHHRLGLVKIGEPSFLVLAVGGHREETFKACRYAVDETKKRVPIWKKEIFKEGKGEWVLGEKKNASGQTK
protein production: not failed

MEVHYMTKIKEIKKVLQQEDADAAWITTPLNIFYFTGYRSEPHERLFALLIPSNEEPVLFCPKMEVEEVKQSPFKGKIIGYLDTENPFDKYSKTFSKMLIESEHLTVKRQRELTKAFNIEHYQDVDQSIKDLRNIK
protein production: failed

MEVIESKWYKKDGASSASIDDVEKLLNTTLPKQYKSFLLWSNGGEGKLGDNYIYIWAIEDVIAYNHDYGIQKYLQKEYWAFGMDGDIGYILHLSDNSIYRVDLGDLDITSIKYIAPSFDDFLGKAIYLNFNKLQNVANNNLTT
protein production: not failed

MEVKEVELELSSEATFLSKTSIGEITAGEKGLNPMELLLVSIGSCSGVDVYHILKKKRQEVKDIKIFLKGKRREKHPKIYEEIEIKYVAVGKVEEKALEQAVKLSTEKYCSVLAMVKPSTNLKISWEVKWEE
protein production: not failed

MEVKGFIEIMRPHNCILAGIVGILGALVAYEGIPDIKTLTLIFWVVYFGCSGGNTANDYFDYEIDKINRPNRPLPRGAMSRRAALYYALLQYAIGSILAYFLNIRAFVFATIAYFLTFLYGWKLKPLPLVGNITVAALTAATPIYGAIGVGRIGLAGYLAICAFLVNVSREIMKDIEDIEGDKALGARTLPIIIGEKKAAIIAAIFGFLTVIASFLPVKVGIGLGYAPIIIVDIIIIKASIDVLRDPKAASKGQKLLKIATFVAVISFLAGALTKGV
protein production: failed

MEVKKELNAQSGKKSLMTIENRKRLLLTGVSEVVNFNDEQIVLNTNLGSLIIKGRELKMNKLDVQNGDIAITGTINAVYSGNESSNKKDSIISRLFKLEHHHHHH
protein production: failed

MEVKKVLVSAFLLTTCLMSGQAQRRNEIQVPDLDGYTTLKCDFHMHSVFSDGLVWPTVRVDEAYRDGLDAISLTEHIEYRPHKQDVVSDHNRSFDLCREQAEKLGILLIKGSEITRAMAPGHFNAIFLSDSNPLEQKDYKDAFREAKKQGAFMFWNHPGWDSQQPDTTKWWPEHTALYQEGCMHGIEVANGHLYMPEAIQWCLDKNLTMIGTSDIHQPIQTDYDFEKGEHRTMTFVFAKERSLQGIREALDNRRTAAYFHELLIGREDLLRPFFEKCVKIEEVSRNEQGVTLSITNVTDLVLKLKKTAHDTLLVYFRDMTLKPHTRYTVRIGFKQGIKGGDVNFEVTNFIVAPDKGLKYTISL
protein production: failed

MEVNKPLPLISIIVPIYNIAEYASECIQSLINQTYKNIEIILVDDGSTDHSPAICDEFAEQDERIKVIHKRNGGLSDARNAGLDVATGEYIGFVDGDDWVDEDMYETLYHLIYEHQADISICTHYTELPNRTKVKYKSKKTKIFSSQKAIATLIEDKIIQNYIWEKLFKRELFTELRFPVGWSFEDIALCYKVFHKARKIVLLQTPKYHYRTRPGSITNSTRNPLKEFQYLQALHEQFQFAAENNIKVRKPKKLVQKTFHFINHIIILPPSSLKKKYINDAFEIAHTYDYLRNWEIGVAATLRRFFVYNYFNAYASVIITYRKYIPARTVKSTTEFFFVRRVATSLATAMRSILYILEHHHHHH
protein production: failed

MEWFDKISEFMEGLPEWLQAHPRYGYLIVAGILLLWLVGIVCGWRWTYSRPGSWEGNFWLGTLGERSYRFWLGLIVAAATGCALLLFSVTG
protein production: failed

MEWLFWFDARDYEFARQVLQRGTAVLYAVAFLSTLNQFPALLGERGLLPVPAFLDMARRLARPTLFRWRYSDALLKAVCWTGIGVSVLLVMGLPQTGPPWLPMLAFLTLWFLYMSIVNVGQTFYGFGWEILLLEAGFTVAFLGSNQCPPPTTILVLIVWLVFRLEFGAGMIKIRGGREWRDMTAMFYHHETQPMPGPLSRQAHLLPRPLHKVEVVGNHFAQLVVPFFLFAPQPLASIAAGIIIATQLWLVGTGNFAWLNWVAIVLAFAAVSDPVAHAVFPFIPLEWHQSTETPVWWLAVVVLVTVLLLVFSYQPLLNLFSSRQLMNASFNRWRLVNAYGAFGTVTKQRIEIVVEGTLDDAPDAPDERWLEYGFKGKPGDVRRLPRQWAPYHLRLDWLMWFLPLRTVHEDWFYIFLDRLLEADRRTLGLLRVDPFDGERPRWVRARSYLYRFASRAEFRETGERWVRVLLYDAIPPVSLSPRRRRLP
protein production: failed

MEYKLTPSYLLKENMVLACGNILFADDGFSVHVIEKLQELLTEEEKENIALVDAGAGAPQQVLTLIDSEAKTKKIIVVDIIDYGLEPGEIKILTMDDLPKPEHTKVDSHDWPLSTTMYRVFRDAPHEIDFKVVGCQKKYVSEPDVVIELSEEVQNAVDVAVDIVLSELRGKPIN
protein production: not failed

MEYKPIRKVVSGNYAAAYAALHARVQVVAAYPITPQTSIIEKIAEFIANGEADIQYIPVESEHSAMAACIGASATGARTFTATSAQGLALMHEMLHWAAGARLPIVMVDVNRAMAPPWSVWDDQTDSLSQRDTGWMQFYAENNQEVYDGVLMAYKVAETVNVPAMVVESAFILSHTYDVVEMIPQELVDEFLPPRKPLYSLANFDEPIAVGALATPNDYYEFRYKLAKAHEEAKKVIKEVGKEFGERFGRDY
protein production: failed

MEYSSIANGLFLISDINSDAAATISNVFDHTSMNTADLENMPTEKPVEYTKSPGHYYIVLPGQPNKYTAKIIINQLNASGETSDIATTTATSAYTTGLFTISAKYLVDDAFVINAGTGQEMTLTRIMDMDGSDYETFPVDVNQGPQTFTIVPQDQLLHATVNYKFADGTEAAPSAKLSGYAGLTTVSAKSPTISGYTPDQKEVAVAFAPTEKTYTVTYKANPTTPTATESSASSSTADEATTFTPFKIYGKRALYTYKNATFKKNQRVSHYAQKSKAYAPIFEVVGTAKSTSGHLRYKLADGTYVTANADYVGALYWQGMYQKLYVTNPKGTNAYDGTRFAQATKQKHYRQGTALTVVKQTQVGQTTRYELTNGTYVTGNKQWVSPTKPRLVKQVKVKRTIRLYRDVNGSTFIKRIKPGKTLTVTGWDYSHGRNPRLSGTLRYRVAGGYITANRQFVVAN
protein production: failed

MEYVAFSVAVIILLGLLFNRVFTRARLPGILGMLILGILIGPHGLNLISKSIMDISPDLRVIALIIILLRAGFGINLESLRKVGMTAVKMSFIPDVFEGLAVMVASHYILGLPIIEAGILGFVIAAVSPAVIVPQMLSFIERRMGTAKGIPTIILTGASVDDVVSITLFSVFLGIYQGQQVNLLVEAIGVPLSILTGITGGLALGLALVYLFRRFEIRNTEKTLIILGAAILLKNMGDLISTYLPIAALVGVMVVGLVILERMPETGLKLSEKFNKVWIFAEILLFVLVGAQVDVRLIFHVGLLGLAVITAGLMVRSIGVLLSLKGTDLNLKEKVFCISAYIPKATVQAAIGAIPLAAGVAAGETILAMAVLAILFTAPLGSLAVKWTGERFLEVERGN
protein production: failed

MFADRLFNAMERNEPAPGMVLVAAPSMESEDFARSVILIIEHSEYATFGVNLASRSDVAVFNVIPEWVPCVTKPQALYIGGPLNQQSVVGVGVTAQGVDAARVDNLTRLANRLVMVNLGADPEEIKPLVSGMRLFAGHAEWAPGQLAQEIENGDWFVAPALPSDVTAPGSVDVWGDVMRRQPMPLPLYSTFPVNVGEN
protein production: not failed

MFADTCGFMNRSPEHIFGSPEIDYSDVSTGYLEDALIESGERSKRRRLLFEDPSKSFNDDDSQNDWGLHESYSCLNSQFVTPHVNTGERISGVSYCQETISNVYESPDTSVSYDKIYVREKSPTEPSSSNCGNKNKRLITKLVYPFGLVKPGGRENDVTLNDINERILMAPSRPIRHPVGDFASRPCVSGRGPGLSGKAVVALTKIQTQGRGTITIIRTKG
protein production: failed

MFALIILISAIIFGIISYFTGKHAKEVSAVLSGILLLEIIAYSIMRFSSYSGGFISRYSVVISSSLGLSFSIAVSGLTDALLILSAVVILIAVLITDRNYGSAFFGLEMTVLAGLIGLLISRDFLFFYIFWEVVLIPVYFMIGRYGIGNKNSISLKFFVYTHIGSVFILLSIFTLYSQSYVYLASPTFEIGPLMSILPKLSLFYKGFVIFGFLFGFLVKMPSFPIHSWLPDSYYSAPYPGSVILAGAISMMGGYGLFGIMIESYKALDVYVLYLLIALGIISLIYFALTAMFQRNIKKMMAFASASAMGFVTISFAASILETSGIDYSVRALEAAGGMFQIVAHGLIMSLVFSALYYISRNTKTDSVYGLGGIYREAPKLASLTLVGLLASLGLPGFAGFIGEFSIVVGVFQTVSWYIFLIIFGMIITASYHIWTAQRSLYGPYNENLGFIRDINSGEFMILIFLVLVIFVLGIYPNLIFANLVNYTNTSLSISVEPALRTNVVAFLEAHVFEVMQ
protein production: failed
